Read-outs that look alike come from different tables or passages of the source.

Holding throughout (assay): BLI
Assay [1] has as its target T1, E. coli FimH lectin domain truncate (UT189) (E. coli (UT189)).
T1 chain: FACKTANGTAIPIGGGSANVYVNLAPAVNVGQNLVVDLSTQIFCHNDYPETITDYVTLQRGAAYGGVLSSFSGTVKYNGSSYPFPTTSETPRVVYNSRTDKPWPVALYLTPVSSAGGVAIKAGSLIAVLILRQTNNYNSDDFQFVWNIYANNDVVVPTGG

The target in assay [2] is T1, E. coli FimH lectin domain truncate ….
The target is the same in assay [3].
Assay [4] shares this target.

B1: Ec1 F7 Fab (Fab, V domains shown)
VH: EVQLQQPGPVLVKPGPSVKISCKASGFTFTDYFIHWVKQSHGKSLEWIGLVSPYNGGTYYNQQFKGKATLTVDTSSSTAYMDLNSLTSEDSAVYYCTRLLRGYWYFDVWGTGTTVTVSS
VL: QIVLTQSPALMAASPGEKVTITCSVSSSIGSSNLHWYQQKSETSPKPWIYGTSNLASGVPVRFSGSGSGTSYSLTISSMEAEDAATYYCQQWSTYPYTFGGGTKLEIKR
As for B1, the koff in assay [1] and in assay [2] was 2.2e-05 s⁻¹ each time.

B2: Kp2 2C07 Fab (Fab, V domains shown)
VH: EVKLVESGEGLVKPGGSLKLSCAASGFTFSSYAMSWVRQTPEKRLDWVAYISSGGDHIYYADTVKGRFTISRDNARNTLYLQMSSLKSEDTAMYYCTRDTGYYVSRYFDVWGTGTTVTVSS
VL: DIVMTQSQKFMSTSVGDRVSVTCKASQNVVTNVAWYQQKSGQSPKVVIYSASFRSSGVPDRFTGSGSGTDFTLTISNVQSEDLAEYFCHQYNSHPLTFGGGTKLEIKR
Turning to B2, the Kd in assay [3] and in assay [4] was 2.8 nM each time.

(Values after patent US20250304662A1 (published 2025).)
